Measurements as given in the supplement of paper PMC9732359.
± gives the uncertainty stated by the source.

Experiment: protein stability index of a GFP-peptide fusion (yeast GPS) (PSI 1-4); higher = more stable; sorted into four equal gates, so the index is relative within each strain
Outline: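 Plasmids in a pooled yeast library fused tiled 17-residue yeast protein peptides downstream of GFP and also expressed Cherry. Mid-log cultures grown without leucine were sorted into four equal gates by GFP/Cherry fluorescence ratio. Each gate's plasmids were PCR-amplified and Illumina-sequenced, and reads were matched to strains by barcodes. The protein stability index is derived by multiplying each gate's read frequency by its gate number and summing the results.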

Row | Sequence | protein stability index (doa10∆) | protein stability index (pdr5∆) | protein stability index (san1∆) | protein stability index (ubr1∆)
1 | ASKSKKKFNMGKEFEAR [RPC53] | 3.33 ± 0.085 | 3.14 ± 0.12 | 3.27 ± 0.073 | 3.4 ± 0.081
2 | SENQRQIFCVFSGKGVH [GRR1] | 2.94 ± 0.073 | 2.5 ± 0.065 | 2.62 ± 0.053 | 2.76 ± 0.046
3 | PKNLSTPSTSSNGEFIP [CSE2] | 2.83 ± 0.049 | 2.87 ± 0.045 | 2.79 ± 0.039 | 2.93 ± 0.043
4 | ENEDGNIEERKEKIQHE [BRR2] | 3.23 ± 0.14 | 3.47 ± 0.1 | 3.57 ± 0.092 | 3.3 ± 0.15
5 | KFILQILQILNLMILNT [YML103C/NUP188] | 1.3 ± 0.081 | 1.29 ± 0.064 | 1.42 ± 0.21 | 2.09 ± 0.03
6 | SEAEYSKDIETLKKEWL [YIL149C/MLP2] | 3.26 ± 0.083 | 3.04 ± 0.085 | 3.13 ± 0.051 | 3 ± 0.049
7 | AFFHLFASLRVLPDADV [YJL039C/NUP192] | 1.17 ± 0.08 | 1.24 ± 0.078 | 1.36 ± 0.14 | 1.97 ± 0.066
8 | KKEYIELDILNKGWKLQ [SRB4] | 2.29 ± 0.13 | 3.38 ± 0.17 | 2.76 ± 0.089 | 2.94 ± 0.16
9 | KKCPFTGLVSIRGKILT [RPS11A] | 1.7 ± 0.058 | 1.53 ± 0.06 | 1.47 ± 0.12 | 1.88 ± 0.055
10 | QVDKVTKEKVNGASVPI [RPL26A] | 3.1 ± 0.077 | 3.3 ± 0.11 | 2.86 ± 0.097 | 3.08 ± 0.046
11 | VIKLAKYPDYFPEWKKS [ARP9] | 3 ± 0.098 | 2.94 ± 0.091 | 2.82 ± 0.064 | 3.27 ± 0.13
12 | KKINRRNETSVDEEDEN [YCG1] | 3.41 ± 0.1 | 3.38 ± 0.098 | 2.79 ± 0.14 | 3.31 ± 0.12
13 | GKNVINRERFISKLFLR [SMD2] | 2.85 ± 0.093 | 1.69 ± 0.067 | 1.73 ± 0.14 | 2.68 ± 0.12
14 | QEESFSLNLGIGIVEIA [SRB8] | 1.33 ± 0.11 | 1.79 ± 0.088 | 2.08 ± 0.29 | 1.89 ± 0.094
15 | IRLSKILEDDFAVALKN [CDC53] | 3.19 ± 0.15 | 3.16 ± 0.14 | 3.04 ± 0.072 | 3.04 ± 0.08
16 | EEQKIVKKVVKEQTEAA [RPL34A] |  | 3.23 ± 0.16 | 3.27 ± 0.061 | 3.13 ± 0.15
17 | NPMKKHKPNEGRTPNIS [SIR4] | 2.88 ± 0.068 | 2.86 ± 0.055 | 2.88 ± 0.052 | 2.97 ± 0.036
18 | ELEFIQSLANIQYVTYL [SOH1] | 2.48 ± 0.068 | 2.54 ± 0.053 | 2.71 ± 0.052 | 2.72 ± 0.041
19 | QLKIQNRQAAASVVPSA [RPL12A] | 1.82 ± 0.035 | 2.48 ± 0.042 | 2.05 ± 0.051 | 2.08 ± 0.03
20 | SYFLQERYFDCCTKFFT [PCI8] | 1.54 ± 0.069 | 1.52 ± 0.059 | 1.76 ± 0.08 | 2.13 ± 0.044
21 | DELERILKELSNLETLY [RPB4] | 3.21 ± 0.092 | 3.33 ± 0.082 | 3.21 ± 0.072 | 3.1 ± 0.12
22 | QEGMNECPGHFGHIDLA [RPO21] | 3.27 ± 0.21 | 3.25 ± 0.098 | 3.33 ± 0.074 | 3.29 ± 0.09
23 | KCLVEKSICFENCLNND [SWI1] | 1.81 ± 0.097 | 2.67 ± 0.057 | 2.69 ± 0.064 | 2.61 ± 0.078
24 | GKRQVLIRPSSKVIIKF [RPS22A] | 3.04 ± 0.068 | 2.4 ± 0.046 | 2.78 ± 0.057 | 2.95 ± 0.042
25 | ELISFKERTKSLEHELK [YIL149C/MLP2] | 2.24 ± 0.062 | 2.64 ± 0.064 | 2.78 ± 0.073 | 2.78 ± 0.083
26 | PGSRASSRFIKGGSLYG [RPN2] | 2.19 ± 0.12 | 1.92 ± 0.11 | 1.45 ± 0.11 | 2.14 ± 0.069
